Laboratory results from patent publication US20210267930A1, “MODIFIED ANTIBODY-ALBUMIN NANOPARTICLE COMPLEXES FOR CANCER TREATMENT” (Mayo Foundation for Medical Education and Research, priority 2016, published 2021).

Assays:
[1] = biological target: CD20 (membrane bound, on Daudi cells) (human) (UniProt P11836); test: blocking assay by flow cytometry: Daudi cells pre-treated with ABX, washed, stained with PE-mouse anti-human CD20
[2] = biological target: CD20 (membrane bound, on Daudi cells) (human) (UniProt P11836); test: blocking assay by flow cytometry: Daudi cells pre-treated with ABX, then stained with labelled anti-human CD20
[3] = biological target: CD20 (membrane bound, on Daudi cells) (human) (UniProt P11836); test: flow cytometry on Daudi cells, ABX labelled with Alexa fluor 488
[4] = biological target: CD20 (membrane bound, on Daudi cells) (human) (UniProt P11836); test: flow cytometry, Daudi cells stained with Alexa-fluor 488 AR160 and PE anti-human CD19 (right panel, upper right quadrant)
[5] = biological target: CD20 (membrane bound, on Daudi cells) (human) (UniProt P11836); test: blocking assay by flow cytometry: Daudi cells pre-treated with pharmacy-made AR160 batch 1, then stained with labelled anti-human CD20 (the blocked antibody)
[6] = biological target: CD20 (membrane bound, on Daudi cells) (human) (UniProt P11836); test: blocking assay by flow cytometry: Daudi cells pre-treated with lab-made AR160, then stained with labelled anti-human CD20 (the blocked antibody)
[7] = biological target: CD20 (membrane bound, on Daudi cells) (human) (UniProt P11836); test: blocking assay by flow cytometry: Daudi cells pre-treated with AR160, washed, stained with PE-mouse anti-human CD20 (the blocked antibody)
[8] = biological target: CD20 (membrane bound, on Daudi cells) (human) (UniProt P11836); test: flow cytometry, Daudi cells stained with Alexa-fluor 488 AR160 alone (middle panel, upper right quadrant)
[9] = biological target: CD20 (membrane bound, on Daudi cells) (human) (UniProt P11836); test: flow cytometry, Daudi cells stained with Alexa-fluor 488 AR160 and PE anti-human CD19 (right panel, upper left quadrant)
[10] = test system: antibody complexation with ABX (bevacizumab); test: Peptide competition assay on nanoparticle formation with bevacizumab; conditions: 10-fold molar excess of peptide
Experimental: Peptides were added at a 10-fold molar excess compared to antibody. Diameter was measured using a Malvern Nanosizer at a 1:200 dilution.
A similar experiment was performed using bevacizumab (FIG. 14B).

[11] = test system: rituximab, trastuzumab, bevacizumab, and muromonab; test: Biacore surface plasmon resonance, albumin peptide library against antibodies; format: binding; conditions: peptides at 50-1.25 μg/mL in HBS running buffer
Experimental: (§1) An albumin peptide library was constructed with 18 amino acid peptides, each containing a 6 amino acid overlap, and each albumin peptide was run against rituximab fixed on a CMS chip. Peptides were suspended to 5-10 mg/mL in HBS-EP plus running buffer. Water insoluble peptides were dissolved in 10% DMSO (Sigma-Aldrich, St. Louis, Mo.). Rituximab was immobilized onto Biacore CMS (GE Healthcare, Chicago, Ill.) chips via amine coupling. Biacore X-100 (GE Healthcare, Chicago, Ill.) was used to screen the albumin peptide libraries over immobilized rituximab. Peptides were screened from 1-50 μg/mL with an exposure time of 120 seconds. Biacore X100 software was used to determine binding kinetics.
Peptides were run at 50, 25, 10, 5, 2.5, 1.25 μg/mL in HBS running buffer. Dissociation constants were determined by Biacore Evaluation Software. […] Diana, F. J., Veronich, K. & Kapoor, A. L. Binding of nonsteroidal anti-inflammatory agents and their effect on binding of racemic warfarin and its enantiomers to human serum albumin. J Pharm Sci 78, 195-199 (1989); Sudlow, G., Birkett, D. J. & Wade, D. N. The characterization of two specific drug binding sites on human serum albumin. Mol Pharmacol 11, 824-832 (1975).

[12] = biological target: T1, ABRAXANE® (ABX) (Homo sapiens, UniProt P02768); test: Binding of antibody to ABX, dissociation constant
T1 construct: purchased Celgene, Summit, N.J

[13] = biological target: CD20 (membrane bound, on Daudi cells) (human) (UniProt P11836); test: flow cytometry on Daudi cells (negative control)
[14] = biological target: CD20 (membrane bound, on Daudi cells) (human) (UniProt P11836); test: flow cytometry of Daudi cells, isotype control (negative control)
[15] = biological target: HSA peptide 40 (Homo sapiens, UniProt P02768); test: Biacore surface plasmon resonance, antibody binding to HSA peptide 40
Experimental: as §1
(§2) The sequence of the variable region of the heavy chain where the binding site is located is provided in FIG. 13F for both bevacizumab (SEQ ID NO.: 1) and rituximab (SEQ ID NO.: 2). The 19-AA region of interest is underlined for bevacizumab (SEQ ID NO.: 8—[…]) and rituximab (SEQ ID NO.: 10—[…]), and share about 80% identity. FIG. 13G provides the sequences from each antibody that bind HSA.

[16] = biological target: T2, HSA peptide 4 (Homo sapiens, UniProt P02768); test: Biacore surface plasmon resonance, antibody binding to HSA peptide 4
T2 construct: An albumin peptide library was constructed with 18 amino acid peptides
Experimental: as §1, §2

[17] = biological target: full HSA protein (Homo sapiens, UniProt P02768); test: Biacore surface plasmon resonance, antibody peptide binding to HSA
Text: FIG. 13B represents binding of bevacizumab variable peptide 1 (SEQ ID NO.: 7) to HSA.
as §2

[18] = biological target: T3, CD20 (Homo sapiens, UniProt P11836); test: Blocking of PE-mouse anti-human CD20 binding to CD20+ Daudi cells (flow cytometry); format: cell-based; conditions: Daudi cells pre-incubated with test article
T3 construct: host or cells: Daudi
T3 sequence (P11836 1-297): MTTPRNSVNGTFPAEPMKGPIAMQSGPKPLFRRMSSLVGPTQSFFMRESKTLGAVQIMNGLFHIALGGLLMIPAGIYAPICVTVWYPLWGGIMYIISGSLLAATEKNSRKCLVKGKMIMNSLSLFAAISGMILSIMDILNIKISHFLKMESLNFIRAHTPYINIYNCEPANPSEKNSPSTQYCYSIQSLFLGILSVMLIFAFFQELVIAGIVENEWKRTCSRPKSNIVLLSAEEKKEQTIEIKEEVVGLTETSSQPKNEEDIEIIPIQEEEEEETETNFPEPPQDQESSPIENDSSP
Experimental: After incubation, the cells were washed and stained with PE-mouse anti-human CD20 and enumerated by flow cytometry.

[19] = test system: Daudi human lymphoma cells; test: Daudi human lymphoma xenograft tumor efficacy; format: in vivo, athymic nude mice; conditions: intravenous
Experimental: To test tumor efficacy, 5×10^6 Daudi human lymphoma cells were implanted into the right flank of athymic nude mice (Harlan Sprague Dawley, Indianapolis, Ind.). […] Tumor size was monitored 2-3 times/week and tumor volume was calculated with the following equation: (length*width^2)/2. Mice were sacrificed when the tumor size equaled 10% of the mouse body weight, or about 2500 mm^3. The day 10 percent change from baseline was calculated as follows: [(tumor size on treatment day-tumor size on day 10)/tumor size on treatment day]*100. Kaplan Meier curves were generated and median survival was calculated using GraphPad Prism software (GraphPad Software, Inc, La Jolla, Calif.).

[20] = test system: CD20+ Daudi cells; test: In vitro toxicity assay, EdU proliferation of Daudi cells; format: cell-based, human; conditions: rituximab 0-200 μg/mL overnight
Experimental: The level of proliferation was determined by staining cells with FITC labeled anti-EdU. The proliferation index was calculated by normalization to the untreated positive control.
Cell proliferation was measured with EdU, a thymidine analog, that was detected with a FITC conjugated anti-EdU and enumerated by flow cytometry.
The human B-cell lymphoma line, Daudi, (ATCC Manassa, Va.) were cultured in RPMI with 1% penicillin, streptomycin and glutamine (PSG) and 10% FBS. Cells were harvested and plated at 0.2×10^6 cells per well in 24 well plates. […] To measure proliferation, the Click-iT EdU (Molecular Probes, Eugene, Oreg.) kit was utilized. […] The cells were permeabilized with 1% saponin and intercalated EdU was labeled with a FITC-conjugated antibody. The proliferation index was determined by dividing the FITC positive cells from each treatment by the maximum proliferation of untreated EdU labeled cells.

[21] = biological target: T4, human serum albumin (HSA) (human, UniProt P02768 25-609); test: SPR (Biacore) of antibody variable-region peptides with full HSA
T4 construct: also called full HSA protein

ABRAXANE® (albumin-bound paclitaxel nanoparticles) (from UniProt P02768 25-609)
% cells in the CD20+ gate after pre-treatment [1]: 82.9% | % cells in the CD20+ gate after pre-treatment [2]: 82.9%

AR160 (rituximab-albumin-paclitaxel nanoparticle complex) (from UniProt P02768 25-609)
% positive cells [3]: 75% | % of cells in the AR160+ CD19+ quadrant [4]: 73.8% | % cells in the CD20+ gate after pre-treatment [5]: 8.2% | % cells in the CD20+ gate after pre-treatment [6]: 6.6% | % cells in the CD20+ gate after pre-treatment [7]: 6.6% | % of cells in the AR160+ CD19+ quadrant [8]: 15.8% | % of cells in the AR160+ CD19- quadrant [9]: 3.95%

Bev Peptide 1: bevacizumab peptide, amino acids 111-125, SEQ ID NO.: 7 (DTAVYYCAKYPHYYGSSHWYF)
effect on particle size increase indicative of antibody complexation with ABX [10]: prevent the 30 nm increase in particle size

HSA peptide 40: HSA amino acids 455-472, SEQ ID NO.: 5; maps to the Sudlow II site
binding to the antibodies [11]: found to bind the antibodies | effect on particle size increase indicative of antibody complexation with ABX [10]: prevent the 30 nm increase in particle size

bevacizumab
binding affinity to ABX [12]: bind with a high affinity

isotype control antibody
% positive cells [13]: 6.2% | % cells in the CD20+ gate [14]: 6.2%

muromonab
binding to HSA peptide 40 [15]: bound | binding to HSA peptide 4 [16]: bound

muromonab peptide: peptide from muromonab corresponding to the albumin-binding region; probably SEQ ID NO.: 12 (DDHYCLDYWGQGTTLTVSSA)
binding to the full HSA protein [17]: did not bind

rituximab
inhibition of subsequent binding of anti-human CD20 antibody [18]: prohibit subsequent binding of the anti-human CD20 antibody | median survival ([19]; RIT 12 mg/kg): 8 days | mice having responses by day 10 ([19]; RIT 12 mg/kg): 0% | percentage of mice alive at day 10 ([19]; RIT 12 mg/kg): 12% | median survival ([19]; RIT 18 mg/kg): 10.5 days | mice having responses by day 10 ([19]; RIT 18 mg/kg): 0% | percentage of mice alive at day 10 ([19]; RIT 18 mg/kg): 38% | toxicity to Daudi cells [20]: not toxic | binding affinity to ABX [12]: bind with a high affinity | dissociation constant for ABX [12]: in the picomolar range

DDHYCLDYWGQGTTLTVSSA [muromonab peptide]
binding result [21]: no binding
